T1: human pituitary adenylate cyclase-activating polypeptide type I receptor (human, UniProt P41586 21-468)
T1 construct: whole, on cells; On SH-SY5Y or recombinant CHO cells (cAMP assay), as membranes of hPAC-1 AequoScreen CHO cells (radioligand assay) and on CHOK1/huPac1 whole cells (KinExA); also called human PAC1; hPAC1
T1 sequence (looked up): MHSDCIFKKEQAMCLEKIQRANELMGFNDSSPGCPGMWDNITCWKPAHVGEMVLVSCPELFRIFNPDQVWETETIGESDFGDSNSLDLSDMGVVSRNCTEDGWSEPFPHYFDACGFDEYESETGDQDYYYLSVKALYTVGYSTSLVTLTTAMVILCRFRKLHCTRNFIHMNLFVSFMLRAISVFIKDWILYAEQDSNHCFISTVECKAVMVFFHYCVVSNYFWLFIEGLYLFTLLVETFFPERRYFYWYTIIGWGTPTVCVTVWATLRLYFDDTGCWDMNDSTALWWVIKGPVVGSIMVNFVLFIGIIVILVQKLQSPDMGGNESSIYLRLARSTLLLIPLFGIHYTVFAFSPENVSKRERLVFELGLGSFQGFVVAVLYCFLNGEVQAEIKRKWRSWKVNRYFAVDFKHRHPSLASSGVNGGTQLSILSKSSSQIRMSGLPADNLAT

T2: human VPAC2 (human, UniProt P41587 24-438)
T2 sequence (looked up): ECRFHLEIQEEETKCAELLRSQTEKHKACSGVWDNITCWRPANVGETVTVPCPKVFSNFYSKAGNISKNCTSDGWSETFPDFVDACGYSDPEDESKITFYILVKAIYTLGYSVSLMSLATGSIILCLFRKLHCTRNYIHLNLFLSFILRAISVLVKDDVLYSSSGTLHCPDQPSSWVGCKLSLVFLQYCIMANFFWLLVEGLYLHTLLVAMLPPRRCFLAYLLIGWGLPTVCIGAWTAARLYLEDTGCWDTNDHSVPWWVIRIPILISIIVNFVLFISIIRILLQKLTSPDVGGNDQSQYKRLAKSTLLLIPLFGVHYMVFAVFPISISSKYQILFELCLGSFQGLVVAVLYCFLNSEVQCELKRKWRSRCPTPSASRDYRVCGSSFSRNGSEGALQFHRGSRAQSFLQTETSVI

T3: human VPAC1 (human, UniProt P32241 31-457)
T3 sequence (looked up): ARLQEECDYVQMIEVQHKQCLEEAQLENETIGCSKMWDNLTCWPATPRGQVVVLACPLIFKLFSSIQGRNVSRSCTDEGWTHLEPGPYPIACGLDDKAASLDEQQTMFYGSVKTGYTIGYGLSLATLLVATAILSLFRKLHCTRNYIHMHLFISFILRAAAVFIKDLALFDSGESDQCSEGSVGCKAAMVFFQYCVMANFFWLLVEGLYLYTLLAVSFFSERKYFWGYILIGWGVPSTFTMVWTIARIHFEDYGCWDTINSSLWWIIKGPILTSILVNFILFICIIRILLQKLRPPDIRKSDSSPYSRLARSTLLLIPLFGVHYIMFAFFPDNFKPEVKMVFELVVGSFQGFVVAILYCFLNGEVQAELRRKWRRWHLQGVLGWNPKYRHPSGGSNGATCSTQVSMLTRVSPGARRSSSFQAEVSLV

T4: rat PAC1 (rat, UniProt P32215 20-523)
T4 sequence (looked up): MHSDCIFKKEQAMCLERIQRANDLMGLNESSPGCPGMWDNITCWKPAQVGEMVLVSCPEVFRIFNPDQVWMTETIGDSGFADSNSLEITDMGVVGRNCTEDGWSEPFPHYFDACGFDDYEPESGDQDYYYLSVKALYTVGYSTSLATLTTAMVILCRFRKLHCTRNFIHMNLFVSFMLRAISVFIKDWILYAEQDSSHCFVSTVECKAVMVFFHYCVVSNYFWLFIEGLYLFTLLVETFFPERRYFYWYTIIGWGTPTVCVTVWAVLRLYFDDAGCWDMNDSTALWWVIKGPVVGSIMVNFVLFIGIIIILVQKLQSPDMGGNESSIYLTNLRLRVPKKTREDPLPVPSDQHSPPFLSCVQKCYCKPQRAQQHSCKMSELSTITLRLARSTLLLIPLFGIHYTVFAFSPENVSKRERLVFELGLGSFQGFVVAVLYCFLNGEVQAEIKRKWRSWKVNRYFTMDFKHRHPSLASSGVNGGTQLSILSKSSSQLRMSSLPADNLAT


Legend:
[1] = target: T1, human pituitary adenylate …; experiment: radioligand competition, hPAC1 CHO membranes; competitor 125I-29B
Protocol: (§1) The plates were incubated at room temperature for 2 hours with shaking at 60 rpm, and then the contents of each well were filtered over 0.5% polyethyleneimine (PEI)-treated (for at least two hours) GF/C 96-well filter plates. The GF/C filter plates were washed five times with ice-cold 50 mM Tris, pH 7.5 and dried in an oven at 55° C. for 1 hour. The bottoms of the GF/C plates were then sealed. 40 μl Microscint™ 20 was added to each well, the tops of the GF/C plates were sealed with TopSeal™-A (a press-on adhesive sealing film), and the GF/C plates were counted with TopCount NXT (Packard). The data were analyzed using Prizm (GraphPad Software Inc.)

[2] = target: T1, human pituitary adenylate …; experiment: radioligand competition, hPAC1 CHO membranes; competitor 125I-14A
Protocol: as §1

[3] = target: T1, human pituitary adenylate …; experiment: radioligand competition, hPAC1 CHO membranes; competitor 125I-14B
Protocol: as §1

[4] = target: T1, human pituitary adenylate …; experiment: radioligand competition, hPAC1 CHO membranes; competitor 125I-39A
Protocol: as §1

[5] = target: T1, human pituitary adenylate …; experiment: radioligand competition, hPAC1 CHO membranes; competitor 125I-39B
Protocol: as §1

[6] = target: T1, human pituitary adenylate …; experiment: radioligand competition, hPAC1 CHO membranes; competitor 125I-26B
Protocol: as §1

[7] = target: T1, human pituitary adenylate …; experiment: radioligand competition, hPAC1 CHO membranes; competitor 125I-26A
Protocol: as §1

[8] = target: T1, human pituitary adenylate …; experiment: radioligand competition, hPAC1 CHO membranes; competitor 125I-01B; 125I-01B as tracer
Protocol: as §1

[9] = target: T1, human pituitary adenylate …; experiment: radioligand competition, hPAC1 CHO membranes; competitor 125I-29A
Protocol: as §1

[10] = target: T1, human pituitary adenylate …; experiment: radioligand competition, hPAC1 CHO membranes; competitor 125I-28A
Protocol: as §1

[11] = target: T1, human pituitary adenylate …; experiment: radioligand competition, hPAC1 CHO membranes; competitor 125I-01B
Protocol: as §1

[12] = target: T2, human VPAC2; experiment: cell-based or functional assay
[13] = target: cyno PAC1 (cynomolgus); experiment: cell-based or functional assay
[14] = target: T3, human VPAC1; experiment: cell-based or functional assay
[15] = target: T1, human pituitary adenylate …; experiment: cell-based or functional assay
[16] = target: T4, rat PAC1; experiment: cell-based or functional assay
[17] = target: T1, human pituitary adenylate …; experiment: KinExA, CHOK1/huPac1 whole cells
Protocol: Binding of anti-Pac1 antibody with CHOK1/huPac1 cells were tested on KinExA. […] Samples containing anti-Pac1 antibody and whole cells were incubated with rotation at room temperature for 4 hours before 5-minute 220-g centrifugation at 4° C. to separate the whole cells and anti-Pac1 antibody-cell complexes from unbound anti-Pac1 antibody. The supernatants containing free anti-Pac1 antibody were filtered through 0.22 μm filter before loading to the goat-anti-huFc-coated beads on KinExA. […] The binding signal is proportional to the concentration of free anti-Pac1 antibody in solution at each cell density. Equilibrium dissociation constant (KD) was estimated by n-curve analysis in KinExA™ Pro software (Sapidyne Instruments, Inc., Boise, Id.).

| Ki [1] | Ki [2] | Ki [3] | Ki [4] | Ki [5] | Ki [6] | Ki [7] | Ki [8] | Ki [9] | Ki [10] | Ki [11] | hVPAC2 IC50 (cAMP assay) [12] | cyno PAC1 IC50 (cAMP assay) [13] | hVPAC1 IC50 (cAMP assay) [14] | hPAC1 IC50 (cAMP assay) [15] | rat PAC1 IC50 (cAMP assay) [16] | Kd [17] | Binder |
| --- | --- | --- | --- | --- | --- | --- | --- | --- | --- | --- | --- | --- | --- | --- | --- | --- | --- |
| 2.39 nM | 4.08 nM | 7.74 nM | 2.78 nM | 4.91 nM | 6.26 nM | 2.51 nM | 4.98 nM | 4.05 nM | 2.06 nM |  |  |  |  |  |  |  | FTDSYSRYRKQMAVKKYLAAVLGKRYKQRVKNK (peptide, UniProt P18509 137-169, looked up, domain: PACAP 6-38) [PACAP 6-38] |
| 0.08 nM |  | 0.08 nM |  | 0.05 nM | 0.07 nM |  |  |  |  | 0.14 nM | > 10000 nM | 0.5 nM | > 10000 nM | 0.9 nM | 50.7 nM | 0.015 nM | 29B (antibody, human IgG1, kappa, N297G, "B" suffix: aglycosylated IgG1 variant (N297G); also called LC-11 and HC-40) heavy: not shown light: DIQLTQSPSFLSASVGDRVTITCRASQSIGRSLHWYQQKPGKAPKLLFKYASQSLSGVPSRFSGSGSGTEFTLTISSLQPEDFATYYCHQSSRLPFTFGPGTKVDIKRTVAAPSVFIFPPSDEQLKSGTASVVCLLNNFYPREAKVQWKVDNALQSGNSQESVTEQDSKDSTYSLSSTLTLSKADYEKHKVYACEVTHQGLSSPVTKSFNRGEC |

Reference: patent US20180362645A1 (Amgen, published 2018)
